Measurements: PMC2377097

Target: Unc45b^Flag, bacteria expressed and purified (mouse) (UniProt Q8CGY6)
Experiment: pull-down; apparent; skeletal MD::GFP synthesized in the coupled assay, incubated with 0-2000 nM Unc45b^Flag 1 hr at 25°C, then anti-Flag beads 1 hr at 25°C; silver stain and autoradiography

Unc45b^Flag, bacteria expressed and purified (mouse), sequence (Q8CGY6 whole entry): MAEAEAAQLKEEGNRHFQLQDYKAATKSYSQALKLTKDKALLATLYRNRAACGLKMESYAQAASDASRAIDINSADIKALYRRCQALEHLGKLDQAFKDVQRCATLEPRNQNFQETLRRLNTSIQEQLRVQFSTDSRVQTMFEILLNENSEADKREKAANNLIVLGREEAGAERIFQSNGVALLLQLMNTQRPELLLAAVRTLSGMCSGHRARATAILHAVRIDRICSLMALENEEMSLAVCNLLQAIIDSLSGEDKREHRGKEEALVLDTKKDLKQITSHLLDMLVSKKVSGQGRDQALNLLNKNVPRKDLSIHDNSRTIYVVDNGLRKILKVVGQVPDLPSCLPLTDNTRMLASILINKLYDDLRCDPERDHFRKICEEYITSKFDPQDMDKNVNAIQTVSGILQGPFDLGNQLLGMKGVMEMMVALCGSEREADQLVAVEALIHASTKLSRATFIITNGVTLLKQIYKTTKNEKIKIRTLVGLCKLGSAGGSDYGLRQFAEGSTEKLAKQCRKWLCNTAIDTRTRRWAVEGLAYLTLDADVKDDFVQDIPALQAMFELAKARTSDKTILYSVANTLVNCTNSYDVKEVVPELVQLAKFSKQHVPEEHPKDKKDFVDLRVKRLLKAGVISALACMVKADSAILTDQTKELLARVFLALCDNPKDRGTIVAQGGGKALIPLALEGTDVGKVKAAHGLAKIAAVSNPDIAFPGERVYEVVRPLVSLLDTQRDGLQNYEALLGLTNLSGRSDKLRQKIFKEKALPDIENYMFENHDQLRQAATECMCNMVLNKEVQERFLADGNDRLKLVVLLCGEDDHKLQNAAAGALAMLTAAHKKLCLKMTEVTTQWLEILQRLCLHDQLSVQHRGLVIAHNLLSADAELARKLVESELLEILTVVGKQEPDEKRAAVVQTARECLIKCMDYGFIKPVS

Kd: 510 nM
Substance: skeletal muscle MD::GFP chimera (Sk795GFP) (domain or fragment)
